Experimental data published in patent US8088892B2, “Inhibitors of proteins from the Rho-GEF family” (Centre National de la Recherche Scientifique (C.N.R.S.), priority 2002, dated 2012).
Entries after “also recorded” stand apart in the source; their conditions may differ.

Assays:
[1] = system: NGF-differentiated PC12 cells; experiment: Serum-induced neurite retraction; format: cell-based; settings: 0 to 15 min after serum addition
Experimental: FIG. 6A represents histograms quantifying the effects of GFP-TRIPα or GFP on serum induced neurite retraction in NGF-differentiated PC12 cells. The X-axis represents the time after serum addition in minutes and the Y-axis represents the percentage of transfected cells with neurites.
Cells were transfected with GFP-TRIPα (white bars) or GFP (black bars) and differentiated with NGF (50 ng/ml). Serum was added and neurite retraction was followed for 15 minutes. The number of transfected cells with neurites was counted from at least 200 cells in 3 independent experiments.
Since Trio is an activator of RhoA and is expressed in PC12 cells (Estrach et al., 2002), it was analysed whether TRIPα could interfere with serum-induced neurite retraction in NGF-differentiated PC12 cells. […] After NGF treatment, cells were subjected to serum addition (DMEM medium supplemented with 10% HS and 5% fetal calf serum (FCS)) from 0 to 15 min (FIG. 6A). Cells were then fixed and permeabilised (Estrach et al., 2002) and observed as described in FIG. 5. Cells with neurites are defined as cells with neurites of at least twice the length of the cell body.

Dbl = biological target: T1, Dbl (Homo sapiens, UniProt P10911); experiment: In vitro GEF assay on RhoA; format: biochemical; set-up: key to in vitro GEF assay (inhibition): +++^2 and +^2 represent respectively a full and a partial (see FIG. 3) inhibitory effect; +++^2 and +^2 represent respectively a full and a partial (see FIG. 3) inhibitory effect; −−^2 represents a lack of inhibitory effect
T1 construct: made in house
T1 sequence (P10911 495-826): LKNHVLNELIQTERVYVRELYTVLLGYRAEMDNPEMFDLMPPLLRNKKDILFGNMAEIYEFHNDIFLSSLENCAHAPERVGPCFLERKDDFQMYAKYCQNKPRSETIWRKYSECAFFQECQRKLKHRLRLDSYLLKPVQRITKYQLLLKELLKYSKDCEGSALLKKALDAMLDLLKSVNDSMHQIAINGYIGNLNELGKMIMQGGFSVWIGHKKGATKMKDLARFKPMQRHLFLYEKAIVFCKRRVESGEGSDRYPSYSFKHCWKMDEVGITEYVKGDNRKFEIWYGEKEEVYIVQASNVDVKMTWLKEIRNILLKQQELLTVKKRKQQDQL
Source text: An in vitro guanine nucleotide exchange (GEF) assay was used to test whether the TrioGEFD2-binding aptamers could inhibit the catalytic activity of TrioGEFD2 towards RhoA. For this purpose, the aptamers TRIAPα, TRIAPβ and TRIAPγ (including the Trx gene) were excised from pEG202 as EcoRI/NotI fragments and cloned into pGEX4T1 EcoRI/NotI. The aptamers were then expressed and purified from bacteria as GST fusion proteins, using standard procedures (Smith and Johnson, 1988). GTPase-GST fusion proteins were prepared, loaded with [^3H]GDP and the guanine nucleotide release assays were performed as described (Debant et al., 1996), using recombinant GST-TrioGEFD2 (a.a. 1848-2298), TrioDH2 (a.a. 1848-2096). For each point, 0.3 μM GTPase was mixed with or without 0.4 μM GEF in presence of non-labeled GTP, and the reaction mix was filtered after 0 min and 15 mm reaction at 25° C. The catalytic activity of TrioGEFD2 was thus measured by the decrease of the GTPase-associated radioactivity. The results are expressed as the ratio “exchange after 15 min over exchange after 0 min” (% bound [^3H]GDP-RhoA). To measure the effect of the aptamers on the exchange activity, a 20-fold molar excess of GST-TRIAPs was pre-incubated with GEFD2 (or GEFD1) for 30 min on ice before the exchange assay was carried out. For each experiment, data were obtained in triplicate. […]

TrioDH2 = biological target: T2, TrioDH2 (Homo sapiens, UniProt O75962); experiment: In vitro GEF assay on RhoA; format: biochemical; settings: 20-fold molar excess (8 μM) aptamer, 0.4 μM GST-DH2
T2 construct: TrioDH2 (a.a. 1848-2096); made in house
Experimental: A 20-fold molar excess (8 μM) of GST-aptamers TRIAPα, TRIAPβ (another TrioGEFD2 binding aptamer), TRIAPγ (another TrioGEFD2 binding aptamer) or the empty thioredoxine (Trx) were pre-incubated with 0.4 μM GST-GEFD2 (left side of FIG. 2A) or 0.4 μM GST-DH2 (right side of FIG. 2A), as indicated, before adding 0.3 μM of [^3H]GDP loaded GST-RhoA. The exchange activity was monitored by the decrease of [^3H]GDP bound-RhoA after 15 min (see Materials and Methods). The amount of [^3H]GDP bound-RhoA incubated without GEF (first bar on the left) was defined as 100% The values and errors bars were calculated from at least three independent experiments.
An in vitro guanine nucleotide exchange (GEF) assay was used to test whether the TrioGEFD2-binding aptamers could inhibit the catalytic activity of TrioGEFD2 towards RhoA. For this purpose, the aptamers TRIAPα, TRIAPβ and TRIAPγ (including the Trx gene) were excised from pEG202 as EcoRI/NotI fragments and cloned into pGEX4T1 EcoRI/NotI. The aptamers were then expressed and purified from bacteria as GST fusion proteins, using standard procedures (Smith and Johnson, 1988). […] The catalytic activity of TrioGEFD2 was thus measured by the decrease of the GTPase-associated radioactivity. The results are expressed as the ratio “exchange after 15 min over exchange after 0 min” (% bound [^3H]GDP-RhoA). […]

AREGADGAICGYNLATLVMLGPSERVFCPLCEPCSSDIYELM [TRIPα, 42-amino acid peptide corresponding to the variable region of TRIAPα]
Effect on serum-induced neurite retraction [1]: prevents serum- and LPA-induced neurite retraction; also recorded: significantly inhibited this retraction

B1: TRIAPα: aptamer of 154 amino acids: variable region of 42 amino acids inserted into the thioredoxin protein; tested as GST fusion (protein)
chain: MSDKIIHLTDDSFDTDVLKADGAILVDFWAEWCGPAREGADGAICGYNLATLVMLGPSERVFCPLCEPCSSDIYELMGPCKMIAPILDEIADEYQGKLTVAKLNIDQNPGTAPKYGIRGIPTLLLFKNGEVASATKVGALSKGQLKEFLDANLA
in vitro GEF assay (inhibition) (Dbl; RhoGEF Dbl): −−^2
Effect on Dbl exchange activity (Dbl; data not shown): not affected
Inhibition of TrioDH2 exchange activity on RhoA in vitro (TrioDH2): inhibits
Inhibition of TrioDH2 exchange activity on RhoA in vitro (TrioDH2; listed as GST-TRIAPα): inhibited both TrioGEFD2 and TrioDH2 exchange activities
